Tested on: activated integrin αvβ3
Assay: Flow cytometry, scFv binding to MDA-MB 435 variants and patient metastatic breast cancer cells
Set-up: species or system human
Procedure: FIGS. 1A, 1B, 1C. Patient derived scFvs Bc-12 and Bc-15 recognize tumor cell integrin αvβ3 in a cation and activation dependent manner. Flow cytometric analyses in TBS with or without 1 mM Ca^2+, 1 mM Mg^2+, or 0.2 mM Mn^2+ as indicated. Binding of soluble scFv detected after incubation with anti-Flag M2 murine mAb followed by FITC-anti mouse F(ab′)2. (A) scFv binding to human melanoma cells (M21: αvβ3 plus other αv integrins) (M21-LIIb: αIIbβ3, no αv integrins) or lung adenocarcinoma cells (UCLA-P3: αv integrins, no β3 integrin). (B) scFv binding to M21 melanoma cells. (C) scFv binding to variants of MDA-MB 435 human breast cancer cells that lack (β^3−) or express αvβ3 either in a non-activated (β3WT, ParentCo) or activated form (β3D723R, Bone, Lung, and BMS metastatic cancer cells isolated from breast cancer patient blood).
FIGS. 2A, 2B, 2C, 2D. Translation of scFv DNA sequence analyses. (A) Consensus amino acid sequence (SEQ ID NO: 9) of Bc-12 (SEQ ID NO: 7) and Bc-15 (SEQ ID NO: 8) (specific for activated αvβ3) compared to Bc-20 (specific for αv) (SEQ ID NO: 10). (B) scFv binding to BMS human breast cancer cells by flow cytometry, indicating loss of Bc-12 and Bc-15 binding when CDR-H3 RGD is mutated to RGE (Mut-12 and Mut-15). […] (C) cDNA sequences for scFv Bc-12 (SEQ ID NO: 1) and scFv Bc-15 (SEQ ID NO: 3). The cDNA encoding scFv Bc-12 has an ATCC accession number PTA-6303, date of deposit: Nov. 12, 2004. The cDNA encoding scFv Bc-15 has an ATCC accession number PTA-6304, date of deposit: Nov. 12, 2004. (D) cDNA sequences for scFv Mut-12 (SEQ ID NO: 5) and scFv Mut-15 (SEQ ID NO: 6). scFv Mut-12 is the RGE containing mutant version of scFv Bc-12. scFv Mut-15 is the RGE containing mutant version of scFv Bc-15.
Flow cytometry. scFv binding to human tumor cells was analyzed by flow cytometry, initially with cloned scFv phage and then with purified scFv protein. Per sample, 2×10^5 tumor cells were blocked with goat serum and incubated either with scFv phage (2-5×10^10) (1 h at RT) followed by mouse anti-M13 mAb (Serotec) (30 min on ice) and goat FITC-anti mouse (Pierce) (30 min on ice), or with purified scFv (1.25 to 40 μg/ml, routinely 10 to 15 μg/ml) (45 min on ice), followed by mouse anti-FLAG mAb M2 (Sigma) (30 min on ice) and goat FITC-anti mouse. Binding/washing buffer was TBS with or without divalent cations (1 mM Ca^2+, 1 mM Mg^2+, 0.2 mM Mn^2+). Alternatively, tumor cells were washed in 10 ml of plasma (prepared freshly from human blood anticoagulated with 50 nM D-Phe-D-Pro-D-arginyl chloromethyl ketone, PPACK, Felding-Habermann et al., J. Biol. Chem. 271: 5892-5900, 1996), resuspended in plasma and then incubated sequentially, without washing, with purified scFv (45 min on ice), followed by anti-FLAG M2 (30 min on ice) and FITC-anti mouse (30 min on ice). All samples were counter stained with propidium iodide (PI) and analyzed on a Becton-Dickinson FACScan, with live gate set to exclude PI positive cells.
To test this further, the effects of cation combinations on Bc-12 and Bc-15 binding were examined. […] Smith, Methods Cell Biol. 69: 247-259, 2002; Hughes et al., J. Biol. Chem. 271: 6571-6574, 1996. To confirm that scFv Bc-12 and Bc-15 selectively recognize αvβ3 in its activated form, binding of these antibodies to in vitro generated and in vivo selected variants of the MDA-MB 435 breast cancer cell model was tested. […] In contrast, Bc-12 and Bc-15 were able to bind an MDA-MB 435 variant expressing constitutively activated mutant αvβ3D723R, without exogenous stimulation with Mn^2+. […] Importantly, scFvs Bc-12 and Bc-15 recognized in vivo selected MDA-MB 435 variants from bone and lung metastases, as well as metastatic cells isolated from breast cancer patient blood samples (FIG. 1C). These cells express αvβ3 in a constitutively activated form. Felding-Habermann et al., Proc. Natl. Acad. Sci. U.S.A 98: 1853-1858, 2001; Rolli et al., Proc. Natl. Acad. Sci. U.S.A 100: 9482-9487, 2003.

B1: Bc-12: patient derived human scFv antibody against activated αvβ3 with RGD motif in CDR-H3; cDNA ATCC PTA-6303 (protein)
scFv: MAQVQLVQSGAEVKKPGASVKVSCKASGYTFSNYGITWVRQAPGQGLEWMGWINNGNTHYAQKFQGRVTMTTDTSTSTAYMELRSLRSDDTAVYYCARDPRGDDEPYWGQGTLVTVSSGGGGSGGGGSGGGGSEIVLTQSPLSLPVTLGQPASISCRSSQNLVYSDGNTYLSWFQQRPGQSPRRLIYKVSNRDSGVPDRFSGSGSGTDFTLKISRVEAEDIGVYYCMQGTHWPPRTFGQGTKVEIKRGLGGLVDYKDDDDK
binding to MDA-MB 435 variant expressing αvβ3D723R with Mn2+ (Mn^2+ added): further enhanced | binding to MDA-MB 435 variant expressing αvβ3D723R (constitutively activated mutant, without Mn^2+): able to bind | binding to β3-negative MDA-MB 435 cells (β3− variant): failed to bind

— patent US7271245B2, “Methods and compositions for inhibition of metastasis” (The Scripps Research Institute, priority 2004, dated 2007)
